Biological target: T1, His-NLRP3 (human, UniProt Q96P20 1-1036)
T1 construct: human NLRP3 cloned into pET28a; The methods name only His-NLRP3; also called His-NLRP3-Flag; pET28a-His-NLRP3; source: E. coli (pET28a), IPTG-induced; called purified in the legend
Assay: pull-down; GST or GST-VDR with His-NLRP3, pulled down on Glutathione MagBeads, immunoblot; incubation 2 h or overnight at 4 °C on a rotator (methods)
Conditions: both partners purified

T1 sequence (Q96P20 whole entry): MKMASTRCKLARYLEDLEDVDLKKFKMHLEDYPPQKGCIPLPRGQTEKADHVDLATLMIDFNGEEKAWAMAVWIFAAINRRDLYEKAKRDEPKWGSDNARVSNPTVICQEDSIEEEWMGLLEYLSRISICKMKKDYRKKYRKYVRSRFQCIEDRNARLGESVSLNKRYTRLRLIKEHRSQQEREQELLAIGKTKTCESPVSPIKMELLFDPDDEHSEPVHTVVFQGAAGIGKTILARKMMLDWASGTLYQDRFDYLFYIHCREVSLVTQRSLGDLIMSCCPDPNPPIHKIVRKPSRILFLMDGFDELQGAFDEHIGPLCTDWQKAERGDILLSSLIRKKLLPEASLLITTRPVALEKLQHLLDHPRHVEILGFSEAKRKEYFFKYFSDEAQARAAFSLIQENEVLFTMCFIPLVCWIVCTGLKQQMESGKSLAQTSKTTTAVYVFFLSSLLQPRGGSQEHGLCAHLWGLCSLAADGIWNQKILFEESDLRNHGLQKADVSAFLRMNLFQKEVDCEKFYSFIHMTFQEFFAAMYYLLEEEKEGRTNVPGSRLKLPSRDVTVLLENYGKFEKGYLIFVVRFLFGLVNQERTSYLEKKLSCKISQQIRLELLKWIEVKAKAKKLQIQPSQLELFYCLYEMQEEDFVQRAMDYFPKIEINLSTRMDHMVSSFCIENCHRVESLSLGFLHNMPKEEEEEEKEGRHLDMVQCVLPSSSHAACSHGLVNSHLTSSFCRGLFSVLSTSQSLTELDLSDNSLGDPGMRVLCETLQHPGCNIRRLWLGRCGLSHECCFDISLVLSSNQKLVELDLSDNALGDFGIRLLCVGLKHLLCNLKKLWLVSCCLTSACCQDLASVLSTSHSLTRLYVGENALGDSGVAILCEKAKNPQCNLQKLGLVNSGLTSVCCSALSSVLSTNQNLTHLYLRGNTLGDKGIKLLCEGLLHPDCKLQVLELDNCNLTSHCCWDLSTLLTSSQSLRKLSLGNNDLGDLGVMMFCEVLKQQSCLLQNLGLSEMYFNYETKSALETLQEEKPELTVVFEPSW

B1: GST-human VDR (natural protein, UniProt P11473 1-427, looked up)
chain: MEAMAASTSLPDPGDFDRNVPRICGVCGDRATGFHFNAMTCEGCKGFFRRSMKRKALFTCPFNGDCRITKDNRRHCQACRLKRCVDIGMMKEFILTDEEVQRKREMILKRKEEEALKDSLRPKLSEEQQRIIAILLDAHHKTYDPTYSDFCQFRPPVRVNDGGGSHPSRPNSRHTPSFSGDSSSSCSDHCITSSDMMDSSSFSNLDLSEEDSDDPSVTLELSQLSMLPHLADLVSYSIQKVIGFAKMIPGFRDLTSEDQIVLLKSSAIEVIMLRSNESFTMDDMSWTCGNQDYKYRVSDVTKAGHSLELIEPLIKFQVGLKKLNLHEEEHVLLMAICIVSPDRPGVQDAALIEAIQDRLSNTLQTYIRCRHPPPGSHLLYAKMIQKLADLRSLNEEHSKQYRCLSFQPECSMKLTPLVLEVFGNEIS
notes: human vitamin D receptor in pGEX-6P1; also called GST-VDR; pGEX6p-1-GST-VDR; source: E. coli BL21(DE3), IPTG-induced; called purified in the legend
- binding result: binds
